Results as given in patent US20260102527A1 (VRIJE UNIVERSITEIT BRUSSEL, published 2026).

B1: anti-human CD8β single domain antibody 22719 (VHH)
VHH: DVQLVESGGGLVQAGGSLRLSCRASGHTFSDTAVGWFRRVPGKEREFVATIAGSGSIRYSESVKGRFTISGDNAKNMVYLQMNRLKPEDTGVYYCAAAVGISYDYWGQGTQVTVSS
notes: Llama-derived sdAb; detected through its C-terminal HA-tag in flow cytometry and ELISA; not shown: C-terminal HA-tag and His-tag (pMECS vector)
B2: anti-human CD8β single domain antibody 22772 (VHH)
VHH: DVQLVESGGGLVQPGGSLRLSCRASGHTFSDLSVGWFRRAPGKAREFVATTAWNGSIRYAESVKGRFTISRDNAANMMYLQMNSLKPEDTAIYYCAAAVGISYDYWGQGTQVTVSS
notes: detected through its C-terminal HA-tag; not shown: C-terminal HA-tag and His-tag (pMECS vector)
B3: anti-human CD8β single domain antibody 22728 (VHH)
VHH: DVQLVESGGGLVQAGDSLRLSCVASGRTVSGGVMGWFRQAPGKGREFVASIKWESGRTYYVDSLKDGFTISRDSPKNTVYLQMTNLKPEDTAVYYCAAGIRVWQLSTLESTYDDWGQGTQVTVSS
notes: as for B1

What was measured:
[1] = biological target: T1, human CD8α on CD3- CD56+ NK cells (express hCD8α but not hCD8β) (human, UniProt P01732 22-235); assay: flow cytometry on primary NK cells, anti-HA detection
T1 construct: whole, on cells; also called cell-exposed CD8a
T1 sequence (P01732 22-235): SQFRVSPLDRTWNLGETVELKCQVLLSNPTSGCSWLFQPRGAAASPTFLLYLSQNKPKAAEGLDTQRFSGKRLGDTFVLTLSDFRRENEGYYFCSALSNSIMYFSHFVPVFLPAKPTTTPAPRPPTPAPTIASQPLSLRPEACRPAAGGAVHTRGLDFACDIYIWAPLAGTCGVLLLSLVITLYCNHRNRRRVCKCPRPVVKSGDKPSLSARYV

[2] = biological target: T2, recombinant hCD8αβ protein (R&D systems) (human, UniProt P01732 22-182; P10966 22-170); assay: equilibrium binding ELISA, coated hCD8αβ protein
T2 construct: Bought protein; they are tied to this reagent by name only; also called human CD8 protein; human CD8β protein
T2 sequence (P01732 22-182 limits assumed, chain 1 of 2): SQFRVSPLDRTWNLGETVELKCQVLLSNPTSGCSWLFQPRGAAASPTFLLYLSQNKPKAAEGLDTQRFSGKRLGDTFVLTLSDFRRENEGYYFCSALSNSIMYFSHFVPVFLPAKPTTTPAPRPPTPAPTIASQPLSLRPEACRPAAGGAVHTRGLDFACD
T2 sequence (P10966 22-170 limits assumed, chain 2 of 2): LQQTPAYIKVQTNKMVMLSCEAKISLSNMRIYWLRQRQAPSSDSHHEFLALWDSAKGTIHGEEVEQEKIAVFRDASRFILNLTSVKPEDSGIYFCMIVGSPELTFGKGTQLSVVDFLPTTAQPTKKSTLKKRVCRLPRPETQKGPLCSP
Procedure: (§1) Wells of a 96 well MicroWell MaxiSorp flat bottom plate (Thermo Fisher Scientific) were coated with 0.2 μg of recombinant hCD8αβ protein, 0.2 μg of cynomolgus CD8β-Fc protein (Sino Biologicals) or PBS overnight at 4° C. The next day, wells were washed 3 times with PBS-T (PBS+0.05% Tween20 (Merck-Millipore, Burlington, MA, USA). Next, wells were blocked with blocking buffer (2% Skimmed milk (Regilait) in PBS) for 1 h at room temperature (RT). Different concentrations of single domain antibodies, diluted in blocking buffer, were added to the wells and incubated for 1 h at RT. Single domain antibody binding was detected using a mouse-anti-HA antibody (1:2000, clone 16B12, Biolegend) and alkaline-phosphatase conjugated goat-anti-mouse antibody (1:200, clone A90-116AP, Bethyl Laboratories, Montgomery, TX, USA). Wells were washed 5 times with PBS-T between all incubation steps. Binding was determined using p-nitrophenyl phosphate (2 mg/ml resuspended in AP blot buffer (12.12 g/L Trizma base, 10.17 g MgCl2·6H20/L, 5.84 g/L NaCl); Thermo Fisher Scientific). Absorbance at 405 nm was measured via a VersaMax ELISA Microplate Reader, using the SoftMax® Pro software (Molecular Devices, San Jose, CA, USA).

[3] = biological target: T3, human CD8 (CD8αβ) on cells: SUP-T1 T cell lymphoma cells and primary human CD8+ T cells (human, UniProt P01732 22-235; P10966 22-210); assay: flow cytometry on SUP-T1 cells, anti-HA detection
T3 construct: whole, on cells; SUP-T1 endogenously expresses human CD8; primary T cells came from healthy donors; The sdAbs are directed to the CD8β chain; also called SUP-T1 cells; primary CD8+ T cells
T3 sequence (P01732 22-235, chain 1 of 2): as the sequence (P01732 22-235) above
T3 sequence (P10966 22-210, chain 2 of 2): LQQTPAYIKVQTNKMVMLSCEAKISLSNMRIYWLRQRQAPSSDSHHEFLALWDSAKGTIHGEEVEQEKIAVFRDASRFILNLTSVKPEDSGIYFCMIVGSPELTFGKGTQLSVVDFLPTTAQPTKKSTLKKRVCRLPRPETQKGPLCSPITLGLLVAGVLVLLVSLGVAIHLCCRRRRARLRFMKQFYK
Procedure: Serial dilutions of anti-hCD8β single domain antibodies were incubated with 500.000 SUP-T1 cells in FACS buffer (HBSS (Gibco, Thermo Fisher Scientific) supplemented with 1% FBS and 2 mM EDTA (Duchefa Biochemie, Haarlem, The Netherlands)) for 1 h at 4° C. Cells were washed once with FACS buffer. Next, single domain antibody binding was detected by incubation of the cells with an Alexa Fluor®-488 tagged anti-HA antibody (1:1000 in FACS buffer, clone 16B12, Biolegend, San Diego, CA, USA) for 30 min at 4° C. Again, cells were washed once with FACS buffer. Single domain antibody binding was determined using the FACS CANTO II analyser (BD Biosciences, Franklin Lakes, NJ, USA). The mean fluorescence intensity of single domain antibody binding was determined using FlowJo version 10.

[4] = biological target: T4, cynomolgus CD8β-Fc protein (Sino Biologicals) (cynomolgus); assay: equilibrium binding ELISA, coated cynomolgus CD8β-Fc
T4 construct: Bought protein; also called cynomolgus CD8β protein
Procedure: as §1

[5] = biological target: T2, recombinant hCD8αβ protein (R&D systems); assay: SPR, Biacore T200, sdAb injected 250 to 1 nM, 25 °C, 1:1 fit
Procedure: The affinity of purified anti-hCD8β single domain antibodies to recombinant hCD8αβ protein (R&D systems, Minneapolis, MN, USA) was determined using the BIACORE-T200 device (Cytiva, Freiburg, Germany). Surface plasmon resonance measurements were performed at 25° C. with HEPES buffered saline (HBS, 20 mM of HEPES pH 7.4, 150 mM of NaCl, 3.4 mM of EDTA 0.05% Tween-20) running buffer. The single domain antibodies were injected consecutively in 2-fold serial dilutions, from 250 to 1 nM. The association step was 100 s, the dissociation step was 200 s, and the two-step regeneration of 35 s at 30 μL·min-1, using 100 mM glycine at pH 3.0, was performed. Local curve fitting analysis was performed using the BIACORE evaluation software (Cytiva) by fitting the obtained sensorgrams to theoretical curves, assuming 1-1 binding geometries. For the determination of the equilibrium dissociation constant, the ratio of the association and dissociation rate constants was determined.

Binder | binding result [1] | Kd [2] | Kd [3] | Kd [4] | Kd [5]
B1 | no binding (tested: 100 nM) | 3.6 nM | 16 nM | 4.4 nM | 1 nM
B2 |  | 3.5 nM | 16.8 nM | 1.6 nM | 5 nM
B3 | no binding (tested: 100 nM) | 2.9 nM | 2 nM | 1.7 nM | 2.6 nM
